These substances were tested against HA-tagged PAK2 (p21 protein (Cdc42/Rac)-activated kinase) (UniProt Q13177) (assay: co-immunoprecipitation (anti-AU1) with in vitro kinase assay, densitometric quantification). Conditions: cells transfected with Nef, CDC42V12 and PAK2-HA; parent: 114.
Set-up: reference not given here

Chain of UniProt Q13177 (Q13177 whole entry): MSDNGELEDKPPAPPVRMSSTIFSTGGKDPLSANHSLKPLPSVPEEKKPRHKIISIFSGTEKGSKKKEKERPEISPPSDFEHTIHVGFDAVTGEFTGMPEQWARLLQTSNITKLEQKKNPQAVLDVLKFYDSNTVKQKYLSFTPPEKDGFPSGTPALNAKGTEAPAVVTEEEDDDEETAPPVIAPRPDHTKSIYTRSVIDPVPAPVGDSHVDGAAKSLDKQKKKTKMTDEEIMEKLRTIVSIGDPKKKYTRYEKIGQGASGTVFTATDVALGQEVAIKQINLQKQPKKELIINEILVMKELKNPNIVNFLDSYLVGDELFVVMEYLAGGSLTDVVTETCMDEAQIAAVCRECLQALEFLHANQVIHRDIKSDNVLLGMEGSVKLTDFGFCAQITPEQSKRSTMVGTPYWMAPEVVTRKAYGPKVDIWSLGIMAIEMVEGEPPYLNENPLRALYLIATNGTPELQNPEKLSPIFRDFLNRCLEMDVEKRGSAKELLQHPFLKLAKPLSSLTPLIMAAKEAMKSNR

Row | Substance | response
1 | AU1-tagged SIVblu Nef, wild-type R129A; R130A | 0

Same assay, conditions: cells transfected with Nef, CDC42V12 and PAK2-HA; parent: 160

Row | Substance | response
2 | AU1-tagged SIVmac239 Nef, wild-type H121R | 23
3 | AU1-tagged SIVmac239 Nef, wild-type H121R; Y221R | 0
4 | AU1-tagged SIVmac239 Nef, wild-type P104A | 123
5 | AU1-tagged SIVmac239 Nef, wild-type P104A; P107A | 34
6 | AU1-tagged SIVmac239 Nef, wild-type P107A | 59
7 | AU1-tagged SIVmac239 Nef, wild-type Y221R | 26
